Here are results for 13 molecules from US20150344570A1 (published 2015).

Assay [1] addresses T1, FcγRIa (human, UniProt P12314 16-292).
T1 construct: extracellular domain; also called FcgRI; CD64
The assay can be described thus: ratio of He/Con_1a to He/Con_2b (FcγRIa over FcγRIIb), SPR. The procedure, abridged:
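Interaction analysis: He antibodies immobilized indirectly through captured antigen peptide (CM5 amine-coupled or SA-biotin), FcγR analytes flowed in running buffer at 25 °C, glycine-HCl pH 1.5 regeneration.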

For assay [2], the target named is T1, FcγRIa. Nature of the assay: SPR (Biacore), captured antibody, soluble FcγR; relative to GpH7-A5/GpH7-B3/GpL16-k0 = 100. Background: In SPR one partner is held on a chip, and binding of the other changes the refractive index at the surface.
For a further assay, the target named is T2, FcγRIIb (human, UniProt P31994 43-217).
T2 construct: extracellular domain; also called FcgRIIb; CD32B
T2 sequence (looked up): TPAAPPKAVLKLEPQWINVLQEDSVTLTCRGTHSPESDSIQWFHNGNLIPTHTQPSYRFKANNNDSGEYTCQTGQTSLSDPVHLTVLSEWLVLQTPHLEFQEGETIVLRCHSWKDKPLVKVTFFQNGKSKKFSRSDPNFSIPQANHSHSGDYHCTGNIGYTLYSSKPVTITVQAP
Described as above.

T1 sequence (P12314 16-292): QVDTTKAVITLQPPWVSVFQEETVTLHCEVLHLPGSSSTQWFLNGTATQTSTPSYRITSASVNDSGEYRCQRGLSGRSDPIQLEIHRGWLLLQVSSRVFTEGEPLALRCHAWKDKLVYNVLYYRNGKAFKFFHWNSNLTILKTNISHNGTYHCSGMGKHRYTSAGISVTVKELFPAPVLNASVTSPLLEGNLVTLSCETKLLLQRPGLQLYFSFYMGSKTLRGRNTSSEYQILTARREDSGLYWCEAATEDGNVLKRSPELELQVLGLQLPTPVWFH

B1: GpH7-A5/GpH7-B3 variant L328_01G/GpL16-k0 (antibody, human IgG1, kappa)
heavy 1: not shown
heavy 2: not shown
light: DIVMTQSPLSLPVTPGEPASISCQASESLVHSNRNTYLHWYLQKPGQSPQLLIYKVSNRFSGVPDRFSGSGSGTDFTLKISRVEAEDVGVYYCSQNTHVPPTFGQGTKVEIERTVAAPSVFIFPPSDEQLKSGTASVVCLLNNFYPREAKVQWKVDNALQSGNSQESVTEQDSKDSTYSLSSTLTLSKADYEKHKVYACEVTHQGLSSPVTKSFNRGEC
notes: He Ab; mutation in the GpH7-B3 chain only; also called He Ab
Consider B1, for which the “He_1a/2b (Ia/IIb)” value with FcγRIa [1] is 1.21. The He/Con_1a with FcγRIa [2] was 97.2 % of control. Further, in the assay with FcγRIIb, the He/Con_2b is 80.2 % of control.

B2: GpH7-A5/GpH7-B3 variant P329_07I/GpL16-k0 (antibody, human IgG1, kappa)
heavy 1: not shown
heavy 2: not shown
light: DIVMTQSPLSLPVTPGEPASISCQASESLVHSNRNTYLHWYLQKPGQSPQLLIYKVSNRFSGVPDRFSGSGSGTDFTLKISRVEAEDVGVYYCSQNTHVPPTFGQGTKVEIERTVAAPSVFIFPPSDEQLKSGTASVVCLLNNFYPREAKVQWKVDNALQSGNSQESVTEQDSKDSTYSLSSTLTLSKADYEKHKVYACEVTHQGLSSPVTKSFNRGEC
notes: as for B1
Take B2: the “He_1a/2b (Ia/IIb)” value with FcγRIa [1] was 2.72. Moreover, the He/Con_1a with FcγRIa [2] was 94.1 % of control. For the same molecule, in the assay with FcγRIIb, the He/Con_2b is 34.6 % of control.

B3: GpH7-A5/GpH7-B3 variant P329_10E/GpL16-k0 (antibody, human IgG1, kappa)
heavy 1: not shown
heavy 2: not shown
light: DIVMTQSPLSLPVTPGEPASISCQASESLVHSNRNTYLHWYLQKPGQSPQLLIYKVSNRFSGVPDRFSGSGSGTDFTLKISRVEAEDVGVYYCSQNTHVPPTFGQGTKVEIERTVAAPSVFIFPPSDEQLKSGTASVVCLLNNFYPREAKVQWKVDNALQSGNSQESVTEQDSKDSTYSLSSTLTLSKADYEKHKVYACEVTHQGLSSPVTKSFNRGEC
notes: as for B1
For B3, the “He_1a/2b (Ia/IIb)” value in the assay with FcγRIa [1] worked out at 1.5. Also, the He/Con_1a in the assay with FcγRIa [2] was 78.8 % of control. The He/Con_2b with FcγRIIb was 52.7 % of control.

B4: GpH7-A5/GpH7-B3 variant P329_09D/GpL16-k0 (antibody, human IgG1, kappa)
heavy 1: not shown
heavy 2: not shown
light: DIVMTQSPLSLPVTPGEPASISCQASESLVHSNRNTYLHWYLQKPGQSPQLLIYKVSNRFSGVPDRFSGSGSGTDFTLKISRVEAEDVGVYYCSQNTHVPPTFGQGTKVEIERTVAAPSVFIFPPSDEQLKSGTASVVCLLNNFYPREAKVQWKVDNALQSGNSQESVTEQDSKDSTYSLSSTLTLSKADYEKHKVYACEVTHQGLSSPVTKSFNRGEC
notes: as for B1
As for B4, the “He_1a/2b (Ia/IIb)” value with FcγRIa [1] was 1.45. For the same molecule, the He/Con_1a in the assay with FcγRIa [2] is 77.6 % of control. Besides, in the assay with FcγRIIb, the He/Con_2b is 53.5 % of control.

B5: GpH7-A5/GpH7-B3 variant P329_06M/GpL16-k0 (antibody, human IgG1, kappa)
heavy 1: not shown
heavy 2: not shown
light: DIVMTQSPLSLPVTPGEPASISCQASESLVHSNRNTYLHWYLQKPGQSPQLLIYKVSNRFSGVPDRFSGSGSGTDFTLKISRVEAEDVGVYYCSQNTHVPPTFGQGTKVEIERTVAAPSVFIFPPSDEQLKSGTASVVCLLNNFYPREAKVQWKVDNALQSGNSQESVTEQDSKDSTYSLSSTLTLSKADYEKHKVYACEVTHQGLSSPVTKSFNRGEC
notes: as for B1
For the molecule B5, in the assay with FcγRIa [1], the “He_1a/2b (Ia/IIb)” value stood at 2.94. The He/Con_1a with FcγRIa [2] was 85.3 % of control. Also, the He/Con_2b with FcγRIIb is 29.1 % of control.

B6: GpH7-A5/GpH7-B3 variant P329_12R/GpL16-k0 (antibody, human IgG1, kappa)
heavy 1: not shown
heavy 2: not shown
light: DIVMTQSPLSLPVTPGEPASISCQASESLVHSNRNTYLHWYLQKPGQSPQLLIYKVSNRFSGVPDRFSGSGSGTDFTLKISRVEAEDVGVYYCSQNTHVPPTFGQGTKVEIERTVAAPSVFIFPPSDEQLKSGTASVVCLLNNFYPREAKVQWKVDNALQSGNSQESVTEQDSKDSTYSLSSTLTLSKADYEKHKVYACEVTHQGLSSPVTKSFNRGEC
notes: as for B1
For B6, the “He_1a/2b (Ia/IIb)” value with FcγRIa [1] came to 4.22. The He/Con_1a in the assay with FcγRIa [2] is 74.3 % of control. In the assay with FcγRIIb, the He/Con_2b was 17.6 % of control.

B7: GpH7-A5/GpH7-B3 variant P329_02A/GpL16-k0 (antibody, human IgG1, kappa)
heavy 1: not shown
heavy 2: not shown
light: DIVMTQSPLSLPVTPGEPASISCQASESLVHSNRNTYLHWYLQKPGQSPQLLIYKVSNRFSGVPDRFSGSGSGTDFTLKISRVEAEDVGVYYCSQNTHVPPTFGQGTKVEIERTVAAPSVFIFPPSDEQLKSGTASVVCLLNNFYPREAKVQWKVDNALQSGNSQESVTEQDSKDSTYSLSSTLTLSKADYEKHKVYACEVTHQGLSSPVTKSFNRGEC
notes: as for B1
For the molecule B7, in the assay with FcγRIa [1], the “He_1a/2b (Ia/IIb)” value is 2.52. Further, in the assay with FcγRIa [2], the He/Con_1a is 102 % of control. Moreover, the He/Con_2b with FcγRIIb was 40.5 % of control.

B8: GpH7-A5/GpH7-B3 variant L328_18N/GpL16-k0 (antibody, human IgG1, kappa)
heavy 1: not shown
heavy 2: not shown
light: DIVMTQSPLSLPVTPGEPASISCQASESLVHSNRNTYLHWYLQKPGQSPQLLIYKVSNRFSGVPDRFSGSGSGTDFTLKISRVEAEDVGVYYCSQNTHVPPTFGQGTKVEIERTVAAPSVFIFPPSDEQLKSGTASVVCLLNNFYPREAKVQWKVDNALQSGNSQESVTEQDSKDSTYSLSSTLTLSKADYEKHKVYACEVTHQGLSSPVTKSFNRGEC
notes: as for B1
With B8, in the assay with FcγRIa [1], the “He_1a/2b (Ia/IIb)” value was found to be 1.22. Besides, the He/Con_1a with FcγRIa [2] was 98.7 % of control. The He/Con_2b in the assay with FcγRIIb is 80.8 % of control.

B9: GpH7-A5/GpH7-B3 variant P329_08L/GpL16-k0 (antibody, human IgG1, kappa)
heavy 1: not shown
heavy 2: not shown
light: DIVMTQSPLSLPVTPGEPASISCQASESLVHSNRNTYLHWYLQKPGQSPQLLIYKVSNRFSGVPDRFSGSGSGTDFTLKISRVEAEDVGVYYCSQNTHVPPTFGQGTKVEIERTVAAPSVFIFPPSDEQLKSGTASVVCLLNNFYPREAKVQWKVDNALQSGNSQESVTEQDSKDSTYSLSSTLTLSKADYEKHKVYACEVTHQGLSSPVTKSFNRGEC
notes: as for B1
Turning to B9, the “He_1a/2b (Ia/IIb)” value with FcγRIa [1] was determined as 2.95. For the same molecule, in the assay with FcγRIa [2], the He/Con_1a was 85.7 % of control. Moreover, the He/Con_2b in the assay with FcγRIIb was 29.1 % of control.

B10: GpH7-A5/GpH7-B3 variant P329_03V/GpL16-k0 (antibody, human IgG1, kappa)
heavy 1: not shown
heavy 2: not shown
light: DIVMTQSPLSLPVTPGEPASISCQASESLVHSNRNTYLHWYLQKPGQSPQLLIYKVSNRFSGVPDRFSGSGSGTDFTLKISRVEAEDVGVYYCSQNTHVPPTFGQGTKVEIERTVAAPSVFIFPPSDEQLKSGTASVVCLLNNFYPREAKVQWKVDNALQSGNSQESVTEQDSKDSTYSLSSTLTLSKADYEKHKVYACEVTHQGLSSPVTKSFNRGEC
notes: as for B1
As to B10, in the assay with FcγRIa [1], the “He_1a/2b (Ia/IIb)” value was found to be 2.53. The He/Con_1a in the assay with FcγRIa [2] was 97.4 % of control. In addition, the He/Con_2b in the assay with FcγRIIb was 38.5 % of control.

B11: GpH7-A5/GpH7-B3 variant P329_11K/GpL16-k0 (antibody, human IgG1, kappa)
heavy 1: not shown
heavy 2: not shown
light: DIVMTQSPLSLPVTPGEPASISCQASESLVHSNRNTYLHWYLQKPGQSPQLLIYKVSNRFSGVPDRFSGSGSGTDFTLKISRVEAEDVGVYYCSQNTHVPPTFGQGTKVEIERTVAAPSVFIFPPSDEQLKSGTASVVCLLNNFYPREAKVQWKVDNALQSGNSQESVTEQDSKDSTYSLSSTLTLSKADYEKHKVYACEVTHQGLSSPVTKSFNRGEC
notes: as for B1
Consider B11, for which the “He_1a/2b (Ia/IIb)” value in the assay with FcγRIa [1] is 4.17. Besides, in the assay with FcγRIa [2], the He/Con_1a was 70.4 % of control. The He/Con_2b with FcγRIIb was 16.9 % of control.

B12: GpH7-A5/GpH7-B3 variant P329_04F/GpL16-k0 (antibody, human IgG1, kappa)
heavy 1: not shown
heavy 2: not shown
light: DIVMTQSPLSLPVTPGEPASISCQASESLVHSNRNTYLHWYLQKPGQSPQLLIYKVSNRFSGVPDRFSGSGSGTDFTLKISRVEAEDVGVYYCSQNTHVPPTFGQGTKVEIERTVAAPSVFIFPPSDEQLKSGTASVVCLLNNFYPREAKVQWKVDNALQSGNSQESVTEQDSKDSTYSLSSTLTLSKADYEKHKVYACEVTHQGLSSPVTKSFNRGEC
notes: as for B1
For B12, in the assay with FcγRIa [1], the “He_1a/2b (Ia/IIb)” value was 2.88. Moreover, the He/Con_1a with FcγRIa [2] was 92.7 % of control. The He/Con_2b in the assay with FcγRIIb was 32.2 % of control.

B13: GpH7-A5/GpH7-B3 variant L328_05P/GpL16-k0 (antibody, human IgG1, kappa)
heavy 1: not shown
heavy 2: not shown
light: DIVMTQSPLSLPVTPGEPASISCQASESLVHSNRNTYLHWYLQKPGQSPQLLIYKVSNRFSGVPDRFSGSGSGTDFTLKISRVEAEDVGVYYCSQNTHVPPTFGQGTKVEIERTVAAPSVFIFPPSDEQLKSGTASVVCLLNNFYPREAKVQWKVDNALQSGNSQESVTEQDSKDSTYSLSSTLTLSKADYEKHKVYACEVTHQGLSSPVTKSFNRGEC
notes: as for B1
In the case of B13, in the assay with FcγRIa [1], the “He_1a/2b (Ia/IIb)” value is 1.42. Besides, in the assay with FcγRIa [2], the He/Con_1a is 92.2 % of control. For the same molecule, the He/Con_2b in the assay with FcγRIIb was 65.1 % of control.
